No end group written: not given here. *: point of attachment. FITC = O=C1OC2(c3ccc(O)cc3Oc3cc(O)ccc32)c2ccc(NC(=S)*)cc21
B1: fluorescein-labeled 4E-BP1 peptide (peptide)
peptide: PGGTRIIYDRK(FITC)FLMECRNSP
notes: also called FITC-4E-BP1 peptide; 4E-BP1-FITC-Peptide; source: synthetic peptide, bought: GenScript (>=98% purity)
B2: m7G beta-actin 5'UTR (structured_RNA)
RNA: GGACCGCCGAGACCGCGUCCGCCCCGCGAGCACAGAGCCUCGCCUUUGCCGAUCCGCCGCCCGCCACACCCGCCGCCAGCUCAC
modifications: 5' m7G cap
B3: m7G HIF-1alpha 5'UTR (structured_RNA)
RNA: AGUGCACAGUGCUGCCUCGUCUGAGGGGACAGGAGGAUCACCCUCUUCGUCGCUUCGGCCAGUGGUCGGGCUGGGCCCUGACAAGCCACCUGAGGAGAGGCUCGGAGCCGGGCCCGGACCCCGGCGAUUGCCGCCCGCUUCUCUCUAGUCUCACGAGGGGUUUCCCGCCUCGCACCCCCACCUCUGGACUUGCCUUUCCUUCUCUUCUCCGCGUGUGGAGGGAGCCAGCGCUUAGGCCGGAGCGAGCCUGGGGGCCGCCCGCCGUGAAGACAUCGCGGGGACCGAUUCACC
modifications: 5' m7G cap
B4: m7G p53A 5'UTR (structured_RNA)
RNA: UCUAGAGCCACCGUCCAGGGAGCAGGUAGCUGCUGGGCUCCGGGGACACUUUGCGUUCGGGCUGGGAGCGUGCUUUCCACGACGGUGACACGCUUCCCUGGAUUGGCAGCCAGACUGCCUUCCGGGUCACUGCC
modifications: 5' m7G cap
B5: m7G FGF-9 5'UTR (structured_RNA)
RNA: GAAACAGCAGAUUACUUUUAUUUAUGCAUUUAAUGGAUUGAAGAAAAGAACCUUUUUUUUUCUCUCUCUCUCUGCAACUGCAGUAAGGGAGGGGAGUUGGAUAUACCUCGCCUAAUAUCUCCUGGGUUGACACCAUCAUUAUUGUUUAUUCUUGUGCUCCAAAAGCCGAGUCCUCUG
modifications: 5' m7G cap
B6: m7G p53B 5'UTR (structured_RNA)
RNA: AUGGAGGAGCCGCAGUCAGAUCCUAGCGUCGAGCCCCCUCUGAGUCAGGAAACAUUUUCAGACCUAUGGAAACUACUUCCUGAAAACAACGUUCUGUCCCCCUUGCCGUCCCAAGCA
modifications: 5' m7G cap
B7: ApppG HIF-1alpha 5'UTR (structured_RNA)
RNA: B3 RNA
modifications: 5' ApppG cap (non-functional)
B8: ApppG p53A 5'UTR (structured_RNA)
RNA: B4 RNA
modifications: 5' ApppG cap (non-functional)
B9: ApppG FGF-9 5'UTR (structured_RNA)
RNA: B5 RNA
modifications: 5' ApppG cap (non-functional)
B10: ApppG p53B 5'UTR (structured_RNA)
RNA: B6 RNA
modifications: 5' ApppG cap (non-functional)

How the values were obtained:
[1] = target: eukaryotic initiation factor 4E (eIF4E) (human, UniProt P06730 1-217); assay: fluorescence polarisation; fluorescence anisotropy; 20 nM FITC-labelled 4E-BP1 peptide, free or preincubated with 10 nM eIF4E for 20 min at 25 °C, titrated with protein (eIF4E: 200 ul of 20 nM peptide with 2.5 uM eIF4E); no mRNA; Hill-equation fit; conditions: both partners purified
[2] = target: T1, eIF4GI557-1599 (human, UniProt Q04637 557-1599); assay: fluorescence anisotropy; 20 mM HEPES-KOH pH 7.5, 200 mM KCl, 1 mM MgCl2, 25 °C; 10 nM labeled mRNA; pre-assembly with 0.5 uM eIF4E and 1 uM 4E-BP1; conditions: protein: recombinant, tags: N-terminal 6xHis, TEV-cleaved, label: 3' fluorescein; for Kd: structured 5'UTR
[3] = target: eIF4E;4E-BP1 (human;human, UniProt P06730;Q13541 1-217;1-118, |); assay: as above; conditions: protein: recombinant;recombinant, tags: N-terminal polyHis, TEV-cleaved;N-terminal 6xHis, copies: 1;1, label: 3' fluorescein
[4] = target: eIF4E (human, UniProt P06730 1-217); assay: as above; conditions: protein: recombinant, tags: N-terminal polyHis, TEV-cleaved, label: 3' fluorescein
[5] = target: 4E-BP1 (human, UniProt Q13541 1-118); assay: as above; conditions: protein: recombinant, tags: N-terminal 6xHis, TEV-cleaved, label: 3' fluorescein
[6] = target: T2, eIF4GI557-1599;eIF4A (human;human?, UniProt Q04637;P60842 557-1599;1-406, |); assay: fluorescence anisotropy; mRNA pre-bound by eIF4E•4E-BP1; 20 mM HEPES-KOH pH 7.5, 200 mM KCl, 1 mM MgCl2, 25 °C; 10 nM labeled mRNA; pre-assembly with 0.5 uM eIF4E and 1 uM 4E-BP1; conditions: protein: recombinant;recombinant, tags: N-terminal 6xHis, TEV-cleaved;N-terminal His-MBP, copies: 1;1, label: 3' fluorescein; for Kd: structured 5'UTR
[7] = target: T1, eIF4GI557-1599; assay: as above; conditions: protein: recombinant; tags: N-terminal 6xHis, TEV-cleaved; label: 3' fluorescein; structured 5'UTR
[8] = target: T2, eIF4GI557-1599;eIF4A; assay: fluorescence anisotropy; ATP; mRNA pre-bound by eIF4E•4E-BP1; text gives error 1.5; 20 mM HEPES-KOH pH 7.5, 200 mM KCl, 1 mM MgCl2, 25 °C; 10 nM labeled mRNA; pre-assembly with 0.5 uM eIF4E and 1 uM 4E-BP1; conditions: protein: recombinant;recombinant, tags: N-terminal 6xHis, TEV-cleaved;N-terminal His-MBP, copies: 1;1, label: 3' fluorescein, structured 5'UTR
[9] = target: T1, eIF4GI557-1599; assay: fluorescence anisotropy; mRNA pre-bound by eIF4E•FITC-4E-BP1 peptide (label on peptide); 20 mM HEPES-KOH pH 7.5, 200 mM KCl, 1 mM MgCl2, 25 °C; 10 nM labeled mRNA; pre-assembly with 0.5 uM eIF4E and 1 uM 4E-BP1; conditions: protein: recombinant; tags: N-terminal 6xHis, TEV-cleaved; label: 3' fluorescein; structured 5'UTR
[10] = target: T1, eIF4GI557-1599; assay: fluorescence anisotropy; text gives error 3.1; 20 mM HEPES-KOH pH 7.5, 200 mM KCl, 1 mM MgCl2, 25 °C; 10 nM labeled mRNA; pre-assembly with 0.5 uM eIF4E and 1 uM 4E-BP1; conditions: protein: recombinant; tags: N-terminal 6xHis, TEV-cleaved; label: 3' fluorescein; structured 5'UTR
[11] = target: T2, eIF4GI557-1599;eIF4A; assay: fluorescence anisotropy; ATP; mRNA pre-bound by eIF4E•4E-BP1; 20 mM HEPES-KOH pH 7.5, 200 mM KCl, 1 mM MgCl2, 25 °C; 10 nM labeled mRNA; pre-assembly with 0.5 uM eIF4E and 1 uM 4E-BP1; conditions: protein: recombinant;recombinant, tags: N-terminal 6xHis, TEV-cleaved;N-terminal His-MBP, copies: 1;1, label: 3' fluorescein, structured 5'UTR
[12] = target: T1, eIF4GI557-1599; assay: fluorescence anisotropy; mRNA pre-bound by eIF4E•FITC-4E-BP1 peptide (label on peptide); text gives error 1.5; 20 mM HEPES-KOH pH 7.5, 200 mM KCl, 1 mM MgCl2, 25 °C; 10 nM labeled mRNA; pre-assembly with 0.5 uM eIF4E and 1 uM 4E-BP1; conditions: protein: recombinant; tags: N-terminal 6xHis, TEV-cleaved; label: 3' fluorescein; structured 5'UTR
[13] = target: T2, eIF4GI557-1599;eIF4A; assay: fluorescence anisotropy; mRNA pre-bound by eIF4E•4E-BP1; text gives error 1.0; 20 mM HEPES-KOH pH 7.5, 200 mM KCl, 1 mM MgCl2, 25 °C; 10 nM labeled mRNA; pre-assembly with 0.5 uM eIF4E and 1 uM 4E-BP1; conditions: protein: recombinant;recombinant, tags: N-terminal 6xHis, TEV-cleaved;N-terminal His-MBP, copies: 1;1, label: 3' fluorescein, structured 5'UTR
[14] = target: T1, eIF4GI557-1599; assay: fluorescence anisotropy; mRNA pre-bound by eIF4E•FITC-4E-BP1 peptide (label on peptide); text gives error 0.7; 20 mM HEPES-KOH pH 7.5, 200 mM KCl, 1 mM MgCl2, 25 °C; 10 nM labeled mRNA; pre-assembly with 0.5 uM eIF4E and 1 uM 4E-BP1; conditions: protein: recombinant; tags: N-terminal 6xHis, TEV-cleaved; label: 3' fluorescein; structured 5'UTR

Sequence of eIF4E (P06730 whole entry): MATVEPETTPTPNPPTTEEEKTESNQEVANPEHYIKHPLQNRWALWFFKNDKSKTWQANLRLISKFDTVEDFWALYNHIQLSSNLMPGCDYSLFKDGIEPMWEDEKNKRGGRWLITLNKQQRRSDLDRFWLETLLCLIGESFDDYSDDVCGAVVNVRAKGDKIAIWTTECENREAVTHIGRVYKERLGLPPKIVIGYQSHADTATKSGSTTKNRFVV
Sequence of eIF4E;4E-BP1 (P06730 whole entry, chain 1 of 2): as the sequence (P06730 whole entry) above
Sequence of eIF4E;4E-BP1 (Q13541 whole entry, chain 2 of 2): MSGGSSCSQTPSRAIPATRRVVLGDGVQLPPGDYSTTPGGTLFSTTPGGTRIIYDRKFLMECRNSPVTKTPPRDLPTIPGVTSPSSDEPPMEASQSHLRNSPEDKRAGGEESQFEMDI
Sequence of 4E-BP1 (Q13541 whole entry): as the sequence (Q13541 whole entry, chain 2 of 2) above
T2 sequence (Q04637 557-1599, chain 1 of 2): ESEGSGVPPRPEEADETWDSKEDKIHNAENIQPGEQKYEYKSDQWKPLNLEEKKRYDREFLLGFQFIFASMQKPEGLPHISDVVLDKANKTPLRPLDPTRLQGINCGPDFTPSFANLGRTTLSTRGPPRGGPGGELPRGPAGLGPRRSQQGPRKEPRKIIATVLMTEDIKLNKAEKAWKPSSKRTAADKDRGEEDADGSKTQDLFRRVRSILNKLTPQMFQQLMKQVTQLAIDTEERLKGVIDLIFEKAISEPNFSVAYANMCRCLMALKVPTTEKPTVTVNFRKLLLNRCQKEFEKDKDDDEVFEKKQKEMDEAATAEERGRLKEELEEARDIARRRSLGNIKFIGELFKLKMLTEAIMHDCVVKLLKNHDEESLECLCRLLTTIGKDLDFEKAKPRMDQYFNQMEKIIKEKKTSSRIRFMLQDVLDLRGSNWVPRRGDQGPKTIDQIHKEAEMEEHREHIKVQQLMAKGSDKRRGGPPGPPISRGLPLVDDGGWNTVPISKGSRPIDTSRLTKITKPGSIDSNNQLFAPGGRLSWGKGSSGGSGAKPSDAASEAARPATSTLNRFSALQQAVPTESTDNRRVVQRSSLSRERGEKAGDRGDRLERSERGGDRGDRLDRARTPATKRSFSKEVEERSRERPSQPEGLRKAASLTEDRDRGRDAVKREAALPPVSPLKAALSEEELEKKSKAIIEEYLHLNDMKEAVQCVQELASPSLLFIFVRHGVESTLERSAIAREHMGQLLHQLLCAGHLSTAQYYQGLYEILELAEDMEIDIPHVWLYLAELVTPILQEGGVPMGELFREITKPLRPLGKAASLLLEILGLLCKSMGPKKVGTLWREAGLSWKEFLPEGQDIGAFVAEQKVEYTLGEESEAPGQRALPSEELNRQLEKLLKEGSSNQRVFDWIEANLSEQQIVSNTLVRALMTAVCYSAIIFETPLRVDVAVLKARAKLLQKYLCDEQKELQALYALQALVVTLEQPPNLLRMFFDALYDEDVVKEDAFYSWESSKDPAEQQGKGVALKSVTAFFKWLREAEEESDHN
T2 sequence (P60842 whole entry, chain 2 of 2): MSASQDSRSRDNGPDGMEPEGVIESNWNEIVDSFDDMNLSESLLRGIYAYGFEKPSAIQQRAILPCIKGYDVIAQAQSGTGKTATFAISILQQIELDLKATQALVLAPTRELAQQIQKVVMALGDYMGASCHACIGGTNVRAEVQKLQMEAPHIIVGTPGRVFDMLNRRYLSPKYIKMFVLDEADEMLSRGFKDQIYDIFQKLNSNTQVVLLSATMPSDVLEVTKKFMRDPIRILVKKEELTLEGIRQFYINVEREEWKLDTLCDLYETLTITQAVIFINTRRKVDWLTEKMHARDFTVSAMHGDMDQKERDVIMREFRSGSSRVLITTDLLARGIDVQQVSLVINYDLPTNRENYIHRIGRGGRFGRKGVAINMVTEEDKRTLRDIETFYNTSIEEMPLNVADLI
T1 sequence (Q04637 557-1599): as the sequence (Q04637 557-1599, chain 1 of 2) above
Sequence of eukaryotic initiation factor 4E (eIF4E) (P06730 whole entry): as the sequence (P06730 whole entry) above

| Binder | Kd [1] [nM] | binding result ([2]; unstructured control) | Kd ([3]; unstructured control) [nM] | Kd ([4]; unstructured control) [nM] | binding result ([5]; unstructured control) | binding result ([6]; unstructured control) | Kd [2] [nM] | Kd ([3]; structured 5'UTR) [nM] | Kd ([4]; structured 5'UTR) [nM] | binding result ([5]; structured 5'UTR) | Kd [6] [nM] | Kd [7] [nM] | Kd [8] [nM] | Kd [9] [nM] | Kd [10] [nM] | Kd [11] [nM] | Kd [12] [nM] | Kd [13] [nM] | Kd [14] [nM] |
| --- | --- | --- | --- | --- | --- | --- | --- | --- | --- | --- | --- | --- | --- | --- | --- | --- | --- | --- | --- |
| B1 | 5 ± 3.7 |  |  |  |  |  |  |  |  |  |  |  |  |  |  |  |  |  |  |
| B2 |  | no binding | 12 ± 0.6 | 28 ± 1.8 | no binding | no binding |  |  |  |  |  |  |  |  |  |  |  |  |  |
| B3 |  |  |  |  |  |  | 22 ± 0.5 | 15 ± 3.4 | 56 ± 1.5 | no binding | 20 ± 1.3 | 15 ± 3.4 | 21 ± 0.5 | 21 ± 0.7 |  |  |  |  |  |
| B4 |  |  |  |  |  |  |  | 13 ± 1.1 | 59 ± 7.5 | no binding | 33 ± 0.7 | 31 ± 5.9 |  | 29 ± 1.3 | 44 ± 1 | 35 ± 1.3 |  |  |  |
| B5 |  |  |  |  |  |  | 20 ± 2 | 32 ± 3.9 | 72 ± 1.6 | no binding | 23 ± 1.3 | 24 ± 0.9 |  | 32 ± 0.3 |  | 24 ± 1.5 |  |  |  |
| B6 |  |  |  |  |  |  | 18 ± 3.1 | 28 ± 2.3 | 54 ± 2.3 | no binding | 21 ± 2.2 | 18 ± 0.3 |  | 47 ± 0.7 |  | 22 ± 1.1 |  |  |  |
| B7 |  |  |  |  |  |  | 67 ± 1.8 | 52 ± 0.5 | 199 ± 1.5 | no binding | 19 ± 0.6 | 25 ± 1.8 |  | 30 ± 3.1 |  | 24 ± 4.3 |  |  |  |
| B8 |  |  |  |  |  |  | 81 ± 1.3 | 45 ± 1.6 | 186 ± 0.8 | no binding | 20 ± 2 | 25 ± 1.1 |  |  |  | 16 ± 0.8 | 35 ± 0.5 |  |  |
| B9 |  |  |  |  |  |  | 28 ± 0.7 | 87 ± 2 | 138 ± 4.6 | no binding |  | 13 ± 0.6 |  | 25 ± 1 |  | 18 ± 1 |  | 15 ± 0.3 |  |
| B10 |  |  |  |  |  |  | 66 ± 1.7 | 89 ± 3.5 | 159 ± 4.2 | no binding | 28 ± 1.8 | 22 ± 0.8 |  |  |  | 21 ± 1.1 |  |  | 42 ± 2 |
